US20210054055A1

Target: Dengue virus serotype 4 (DENV4) virions, envelope protein E (Dengue virus 4)

| Binder | FRNT50 (focus reduction neutralization on Vero cells) [ng/mL] |
| --- | --- |
| Anti-ZIKV clone DT168(A)-D1_G-9E (G9E) (antibody, V domains shown) VH: EVQLVESGGGVVQPGRSLRLSCVASGFAFSNYHMHWVRQAPGKGLEWVAIIWDDGSDQYYADSVKGRFTISRDNSKNTLFLQMNRLRAEDTALYYCVGGSSAYNGDNGWREAASLDDWGQGTLVTVSS VL: QSALTQPASVSGSPGQSITIFCSGSSNDVGGYNYVSWYQQYPGKVPKLLIYDVNSRPSGVSNRFSGSKSGNTASLTISGLQAEDEADYYCSSYTSRRTWVFGGGTIVTVL | > 10000 |
| Anti-ZIKV clone DT168(A)-D1_A-9E (A9E) (antibody, V domains shown) VH: EVQLLESGGGLVQAGGSLRLSCAASGFTFDTYAMSWVRQPPGKGLEWVSAISTGGGSKYYADSVKGRLTISRDNSQNTLYLQMSSLRADDTAVYYCARSDFWRSGRYYYYMDVWGRGTTVTVSS VL: QSALTQPASVSASPGQSITISCTGTHFDIVDYDYLSWYQQHPGNAPKLLIYGVSNRPSGVSSRFSGSKSGNTASLTISGLQAEDEGDYYCSSYSISSTLLVFGGGTKLSV | > 10000 |
